Data published in patent US20100248975A1, “Fluorogenic peptide substrate arrays for highly multiplexed, real-time monitoring of kinase activities” (priority 2006, published 2010).

Experiments:
[1] = test system: combination of Abl and Src; test: Kinase substrate peptide array incubated with mixture of Abl and Src kinases, phospho-specific fluorescent stain; type: biochemical; conditions: incubation with combination of Abl and Src; 200 μM ATP, 10 mM MgCl2, 1 hour at 30° C.; FIG. 4C
Excerpt: (§1) An array of 2520 peptides with 6 different amino acid sequences repeated 420 times was synthesized in situ. The six sequences were designed to represent wild type and two mutated versions of substrates of Abl and Src tyrosine kinases. The sequence of the peptides were: Abl (wt)—AIYAAPFK (SEQ ID NO:10); Abl (Mt 1)—ARYAAPDK (SEQ ID NO:11); Abl (Mt 2)—AIGAAPFK (SEQ ID NO:12); Src (wt)—EIYGEFKK (SEQ ID NO:13); Src (mt1)—EAYGEAKK (SEQ ID NO:14); and Src (mt2)—EIAGEFKK (SEQ ID NO:15), as shown in FIG. 3A.
(§2) The array was synthesized on amino derivatized silicon wafers coupled with dO-(N-Boc-2-aminoethyl)-O′—(N-diglycolyl-2-aminoethyl)hexaethyleneglycol molecule for spacing out the peptides from the surface. The peptides were synthesized using photodeprotection and t-Boc protected amino acids.
(§3) The kinase substrate array was then assayed for detecting Abl and Src kinase activity. The protecting groups of the side groups of amino acids were cleaved by HBr/TFA treatment for one hour in the presence of the scavengers thioanisole and pentamethylbenzene. The array was subsequently neutralized by 5% DIEA treatment for 5 minutes. The array was blocked with 2% BSA for 1 hour for eliminating non-specific sticking of the kinase to the array. […] The kinase mixture was washed off and the phosphorylated peptides were detected by incubating the array with a phospho-specific fluorescent stain.

[2] = target: Abl kinase (Homo sapiens, UniProt P00519); test: Kinase substrate peptide array incubated with Abl kinase alone, phospho-specific fluorescent stain; type: biochemical; conditions: incubation with Abl alone; 200 μM ATP, 10 mM MgCl2, 1 hour at 30° C.; FIG. 4A
Excerpt: as §1, §2, §3

[3] = test system: T1, Abl (Mt 1) substrate peptide ARYAAPDK
T1 sequence: ARYAAPDK

[4] = test system: T2, Abl (Mt 2) substrate peptide AIGAAPFK
T2 sequence: AIGAAPFK

[5] = test system: T3, Src (mt2) substrate peptide EIAGEFKK
T3 sequence: EIAGEFKK

[6] = test system: T4, Abl (wt) substrate peptide AIYAAPFK
T4 sequence: AIYAAPFK

[7] = test system: T5, Src (mt1) substrate peptide EAYGEAKK
T5 sequence: EAYGEAKK

[8] = test system: T6, Src (wt) substrate peptide EIYGEFKK
T6 sequence: EIYGEFKK

[9] = target: Src kinase (Homo sapiens, UniProt P12931); test: Kinase substrate peptide array incubated with Src kinase alone, phospho-specific fluorescent stain; type: biochemical; conditions: incubation with Src alone; 200 μM ATP, 10 mM MgCl2, 1 hour at 30° C.; FIG. 4B
Excerpt: as §1, §2, §3

Sequence of Abl kinase (P00519 whole entry): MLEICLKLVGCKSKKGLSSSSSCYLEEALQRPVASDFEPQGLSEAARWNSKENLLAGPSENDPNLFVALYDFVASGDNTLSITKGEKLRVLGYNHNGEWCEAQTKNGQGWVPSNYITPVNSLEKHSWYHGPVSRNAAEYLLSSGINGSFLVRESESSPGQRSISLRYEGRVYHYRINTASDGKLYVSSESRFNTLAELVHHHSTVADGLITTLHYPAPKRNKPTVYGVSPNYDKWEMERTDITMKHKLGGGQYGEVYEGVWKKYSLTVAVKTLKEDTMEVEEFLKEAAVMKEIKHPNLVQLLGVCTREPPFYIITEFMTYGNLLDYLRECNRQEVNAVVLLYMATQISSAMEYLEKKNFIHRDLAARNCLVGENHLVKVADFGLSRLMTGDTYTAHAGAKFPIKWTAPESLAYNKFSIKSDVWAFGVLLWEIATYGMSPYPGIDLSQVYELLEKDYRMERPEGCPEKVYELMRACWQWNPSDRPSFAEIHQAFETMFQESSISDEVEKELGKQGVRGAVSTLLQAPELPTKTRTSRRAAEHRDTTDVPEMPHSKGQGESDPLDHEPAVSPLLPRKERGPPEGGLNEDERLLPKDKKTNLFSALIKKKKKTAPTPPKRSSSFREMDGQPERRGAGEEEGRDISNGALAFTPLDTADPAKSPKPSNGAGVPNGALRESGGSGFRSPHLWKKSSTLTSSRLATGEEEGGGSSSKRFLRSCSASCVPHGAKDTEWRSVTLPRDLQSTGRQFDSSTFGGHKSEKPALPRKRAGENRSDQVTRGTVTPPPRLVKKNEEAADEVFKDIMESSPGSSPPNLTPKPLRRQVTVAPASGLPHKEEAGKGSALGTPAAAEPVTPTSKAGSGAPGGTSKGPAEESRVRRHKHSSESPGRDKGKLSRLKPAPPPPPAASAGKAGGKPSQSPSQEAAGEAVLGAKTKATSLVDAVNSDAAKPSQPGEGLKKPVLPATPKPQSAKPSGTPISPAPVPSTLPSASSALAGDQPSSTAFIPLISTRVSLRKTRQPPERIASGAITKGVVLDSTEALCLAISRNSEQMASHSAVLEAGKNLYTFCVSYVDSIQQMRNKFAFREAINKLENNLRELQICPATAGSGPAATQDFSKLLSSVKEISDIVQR
Sequence of Abl kinase (Homo sapiens, UniProt P00519) (P00519 whole entry): as above

phosphorylation of immobilized peptide (fluorescence of array spots) [1] | phosphorylation of immobilized peptide (fluorescence of array spots) [2] | phosphorylation of immobilized peptide (fluorescence of array spots) [9] | Substance | phosphorylation of the arrayed peptide, detected with a phospho-specific fluorescent stain [3] | phosphorylation of the arrayed peptide, detected with a phospho-specific fluorescent stain [4] | phosphorylation of the arrayed peptide, detected with a phospho-specific fluorescent stain [5] | phosphorylation of the arrayed peptide, detected with a phospho-specific fluorescent stain [6] | phosphorylation of the arrayed peptide, detected with a phospho-specific fluorescent stain [7] | phosphorylation of the arrayed peptide, detected with a phospho-specific fluorescent stain [8]
phosphorylated | phosphorylated | – | AIYAAPFK [SEQ ID NO:10, wild type substrate peptide of Abl tyrosine kinase, synthesized in situ on array] | – | – | – | – | – | –
– | – | – | Src kinase | only the corresponding wild type substrate peptide (either SEQ NO:10 or 13, respectively) was phosphorylated (this peptide not phosphorylated) | only the corresponding wild type substrate peptide (either SEQ NO:10 or 13, respectively) was phosphorylated (this peptide not phosphorylated) | only the corresponding wild type substrate peptide (either SEQ NO:10 or 13, respectively) was phosphorylated (this peptide not phosphorylated) | only the corresponding wild type substrate peptide (either SEQ NO:10 or 13, respectively) was phosphorylated (this peptide not phosphorylated) | only the corresponding wild type substrate peptide (either SEQ NO:10 or 13, respectively) was phosphorylated (this peptide not phosphorylated) | in the presence of one kinase, only the corresponding wild type substrate peptide (either SEQ NO:10 or 13, respectively) was phosphorylated
phosphorylated | – | phosphorylated | EIYGEFKK [SEQ ID NO:13, wild type substrate peptide of Src tyrosine kinase, synthesized in situ on array] | – | – | – | – | – | –
– | – | – | Abl kinase | only the corresponding wild type substrate peptide (either SEQ NO:10 or 13, respectively) was phosphorylated (this peptide not phosphorylated) | only the corresponding wild type substrate peptide (either SEQ NO:10 or 13, respectively) was phosphorylated (this peptide not phosphorylated) | only the corresponding wild type substrate peptide (either SEQ NO:10 or 13, respectively) was phosphorylated (this peptide not phosphorylated) | in the presence of one kinase, only the corresponding wild type substrate peptide (either SEQ NO:10 or 13, respectively) was phosphorylated | only the corresponding wild type substrate peptide (either SEQ NO:10 or 13, respectively) was phosphorylated (this peptide not phosphorylated) | only the corresponding wild type substrate peptide (either SEQ NO:10 or 13, respectively) was phosphorylated (this peptide not phosphorylated)
